Numbering of substitutions follows the chain as printed.
B1: Ab17 (antibody, mouse IgG2b, V domains shown)
VH: EVKLVESGGGLVQPGGSLKLSCAASGFTFSSYIMSWVRQTPEKRLEWVASIVSSNITYYPDSMKGRFTISRDNARNILYLQMSSLKSEDTAMYYCARSGTRAWFAYWGQGTLVTVSA
VL: DIVLTQSPASLAVSLGQRATISCRASKSVSTSAYSYMHWYQQKPGQPPKLLIYLASNLESGVPARFSGSGSGTDFTLNIHPVEEEDAATYYCQHSRELPYTFGGGTKLEIK
notes: mouse IgG2b/k
B2: huAb18v10-CZ (antibody, V domains shown)
VH: EVQLVQSGAEVKKPGSSVKVSCKASGYSFTSYTIHWVRQAPGQGLEWMGYINPNSRNTDYAQKFQGRVTLTADKSTSTAYMELSSLRSEDTAVYYCARYSGSTPYWYFDVWGQGTTVTVSS
VL: DIQLTQSPSFLSASVGDRVTITCRASSSVSYMNWYQQKPGKAPKPWIYATSNLASGVPSRFSVSGSGTEHTLTISSLQPEDFATYYCQQWSSNPLTFGQGTKLEIK
modifications: synthon CZ on reduced interchain Cys
notes: ADC, DAR 2.7
B3: huAb18v10 (antibody, V domains shown)
VH: B2 VH
VL: B2 VL
notes: humanized IgG
B4: huAb18v6-CZ (antibody, V domains shown)
VH: B2 VH
VL: EIVLTQSPDFQSVTPKEKVTITCRASSSVSYMNWYQQKPDQSPKLLIKATSNLASGVPSRFSGSGSGTDFTLTINSLEAEDAATYYCQQWSSNPLTFGQGTKLEIK
modifications: synthon CZ on reduced interchain Cys
notes: ADC, DAR 3.4
B5: huAb18v6 (antibody, V domains shown)
VH: B2 VH
VL: B4 VL
notes: humanized IgG
B6: huAb18v2 (antibody, V domains shown)
VH: B2 VH
VL: B2 VL with P45L, W46L, V63G, H70F
notes: humanized IgG
B7: huAb18v8-CZ (antibody, V domains shown)
VH: B2 VH with M48I, A61N, Q65K, G66D, V68T, K74R
VL: B2 VL
modifications: synthon CZ on reduced interchain Cys
notes: ADC, DAR 2.6
B8: huAb18v7-CZ (antibody, V domains shown)
VH: B2 VH
VL: B4 VL with L45P, L46W, K48Y, G63V, G65V, F70H
modifications: synthon CZ on reduced interchain Cys
notes: ADC, DAR 4.3
B9: huAb18v4 (antibody, V domains shown)
VH: B2 VH
VL: B2 VL with A42S, G65V
notes: humanized IgG
B10: huAb18v7 (antibody, V domains shown)
VH: B2 VH
VL: B4 VL with L45P, L46W, K48Y, G63V, G65V, F70H
notes: humanized IgG
B11: huAb18v9-CZ (antibody, V domains shown)
VH: B2 VH with M48I, A61N, Q65K, G66D, V68T, K74R
VL: B4 VL with L45P, L46W, K48Y, G63V, G65V, F70H
modifications: synthon CZ on reduced interchain Cys
notes: ADC, DAR 2.4
B12: huAb18v5-CZ (antibody, V domains shown)
VH: B2 VH with A61N, Q65K, G66D, L70I
VL: B4 VL
modifications: synthon CZ on reduced interchain Cys
notes: ADC, DAR 3.4
B13: huAb18v8 (antibody, V domains shown)
VH: B2 VH with M48I, A61N, Q65K, G66D, V68T, K74R
VL: B2 VL
notes: humanized IgG
B14: huAb18v3 (antibody, V domains shown)
VH: B2 VH with M48I, A61N, Q65K, G66D, V68T, K74R
VL: B2 VL with A42S, G65V
notes: humanized IgG
B15: huAb18v3-CZ (antibody, V domains shown)
VH: B2 VH with M48I, A61N, Q65K, G66D, V68T, K74R
VL: B2 VL with A42S, G65V
modifications: synthon CZ on reduced interchain Cys
notes: ADC, DAR 2.4
B16: huAb18v1-CZ (antibody, V domains shown)
VH: B2 VH with A61N, Q65K, G66D, L70I
VL: B2 VL with P45L, W46L, V63G, H70F
modifications: synthon CZ on reduced interchain Cys
notes: ADC, DAR 2.6
B17: huAb18v4-CZ (antibody, V domains shown)
VH: B2 VH
VL: B2 VL with A42S, G65V
modifications: synthon CZ on reduced interchain Cys
notes: ADC, DAR 2.5
B18: huAb18v2-CZ (antibody, V domains shown)
VH: B2 VH
VL: B2 VL with P45L, W46L, V63G, H70F
modifications: synthon CZ on reduced interchain Cys
notes: ADC, DAR 1.8
B19: huAb18v5 (antibody, V domains shown)
VH: B2 VH with A61N, Q65K, G66D, L70I
VL: B4 VL
notes: humanized IgG
B20: huAb18v1 (antibody, V domains shown)
VH: B2 VH with A61N, Q65K, G66D, L70I
VL: B2 VL with P45L, W46L, V63G, H70F
notes: humanized IgG

Experiments:
[1] = molecular target: T1, Cynomolgous B7-H3 on cells (cynomolgus); assay: FACS, 3T12 transfectants
T1 construct: whole, on cells; also called cyB7-H3; cyno B7-H3
Procedure: (§1) A selection of hits were subcloned using the MoFlo (Beckman, Indianapolis, Ind., US) by depositing a single cell per well into 96 well cell culture plates to ensure clonality of the cell line. Resulting colonies were screened for specificity by FACS using mouse 3T12 fibroblast cell lines expressing the human B7-H3, cynomolgous B7-H3 or mouse B7-H3. Isotype of each monoclonal antibody was determined using the Mouse Monoclonal Isostyping Kit (Roche, No. 11-493-027-001, Indianapolis, Ind., USA).

Human full length B7-H3 [2] = molecular target: T2, Human full length B7-H3 (human, UniProt Q5ZPR3 29-534); assay: FACS, 3T12 transfectants
T2 construct: On 3T12 fibroblasts expressing full length human B7-H3 or on NCI-H1650 cells; signal peptide residues 1-28 stated; also called huB7-H3; CD276
T2 sequence: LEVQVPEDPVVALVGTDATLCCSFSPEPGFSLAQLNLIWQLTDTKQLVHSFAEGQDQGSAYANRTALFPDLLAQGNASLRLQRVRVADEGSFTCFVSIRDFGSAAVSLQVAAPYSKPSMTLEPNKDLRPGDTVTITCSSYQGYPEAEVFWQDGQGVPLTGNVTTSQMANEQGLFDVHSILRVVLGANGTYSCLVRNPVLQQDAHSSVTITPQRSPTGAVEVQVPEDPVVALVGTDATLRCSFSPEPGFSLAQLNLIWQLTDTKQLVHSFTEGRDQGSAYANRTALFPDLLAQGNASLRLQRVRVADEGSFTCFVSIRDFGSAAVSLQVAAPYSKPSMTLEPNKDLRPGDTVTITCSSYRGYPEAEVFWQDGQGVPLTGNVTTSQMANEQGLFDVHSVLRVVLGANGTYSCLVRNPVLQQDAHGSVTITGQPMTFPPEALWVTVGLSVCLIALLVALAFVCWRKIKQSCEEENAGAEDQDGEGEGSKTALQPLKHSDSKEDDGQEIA
Procedure: as §1

Mouse B7-H3 on cells = molecular target: T3, Mouse B7-H3 on cells (mouse, UniProt Q8VE98 29-316); assay: FACS, 3T12 transfectants
T3 construct: whole, on cells
T3 sequence (looked up): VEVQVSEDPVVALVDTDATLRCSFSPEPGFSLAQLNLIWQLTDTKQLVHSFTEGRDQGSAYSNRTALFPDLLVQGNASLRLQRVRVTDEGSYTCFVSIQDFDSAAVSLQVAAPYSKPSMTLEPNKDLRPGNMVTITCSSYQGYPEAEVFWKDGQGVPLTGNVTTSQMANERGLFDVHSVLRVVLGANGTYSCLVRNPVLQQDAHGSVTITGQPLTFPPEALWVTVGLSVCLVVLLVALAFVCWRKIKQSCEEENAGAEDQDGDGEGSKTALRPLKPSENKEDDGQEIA
Procedure: as §1

Cyno B7-H3-ECD (his tag) = molecular target: T4, Cyno B7-H3-ECD (his tag) (cynomolgus); assay: SPR, mAb captured, ECD analyte
T4 construct: SPR analyte; also called soluble ECD of cyno B7-H3
T4 chain: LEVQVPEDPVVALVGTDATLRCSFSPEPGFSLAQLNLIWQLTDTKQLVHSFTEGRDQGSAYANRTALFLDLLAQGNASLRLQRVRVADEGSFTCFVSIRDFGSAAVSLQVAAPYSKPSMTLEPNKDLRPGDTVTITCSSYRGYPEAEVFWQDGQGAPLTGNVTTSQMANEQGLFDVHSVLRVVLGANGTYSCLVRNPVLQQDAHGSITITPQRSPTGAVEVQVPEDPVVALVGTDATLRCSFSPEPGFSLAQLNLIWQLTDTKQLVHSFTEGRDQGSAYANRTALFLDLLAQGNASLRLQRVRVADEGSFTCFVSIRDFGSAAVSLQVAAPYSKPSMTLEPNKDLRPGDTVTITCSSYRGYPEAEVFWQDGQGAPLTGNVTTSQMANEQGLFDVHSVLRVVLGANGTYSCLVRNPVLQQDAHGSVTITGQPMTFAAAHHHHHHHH

[3] = molecular target: T5, Human B7-H3-ECD (His tag) (human, UniProt Q5ZPR3 29-461); assay: SPR, mAb captured, ECD analyte
T5 construct: SPR analyte; also called huB7-H3; soluble ECD of human B7-H3
T5 sequence: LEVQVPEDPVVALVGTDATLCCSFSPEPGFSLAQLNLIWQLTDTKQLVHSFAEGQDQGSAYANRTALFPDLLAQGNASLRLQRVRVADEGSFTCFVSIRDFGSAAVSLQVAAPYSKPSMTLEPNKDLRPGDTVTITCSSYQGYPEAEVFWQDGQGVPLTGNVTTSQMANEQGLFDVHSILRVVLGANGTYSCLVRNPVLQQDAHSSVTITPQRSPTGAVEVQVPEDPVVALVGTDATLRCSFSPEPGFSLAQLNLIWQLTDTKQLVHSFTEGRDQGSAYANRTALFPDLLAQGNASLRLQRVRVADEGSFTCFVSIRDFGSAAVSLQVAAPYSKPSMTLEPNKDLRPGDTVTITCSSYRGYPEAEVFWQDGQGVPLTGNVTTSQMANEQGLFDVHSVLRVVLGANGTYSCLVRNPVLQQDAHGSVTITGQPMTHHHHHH

Human full length B7-H3 [4] = molecular target: T2, Human full length B7-H3; assay: FACS (Example 6 method)
Procedure: Cells were harvested from flasks when approximately 80% confluent using Gibco® Cell Dissociation Buffer. Cells were washed once in PBS/1% FBS (FACS buffer) then resuspended at 2.5×10⁶ cells/mL in FACS buffer. 100 μL of cells/well were added to a round bottom 96-well plate. 10 μL of a 10× concentration of mAb/ADC (final concentrations are indicated the figures). Wells were washed twice with FACS buffer and resuspended in 50 μL of secondary Ab (AlexaFluor 488) diluted in FACS buffer. The plate was incubated at 4° C. for one hour and washed twice with FACS buffer. Cells were resuspended in 100 μL of PBS/1% formaldehyde and analyzed on a Becton Dickinson LSRII flow cytometer. Data was analyzed using WinList flow cytometry analysis software.
(§2) The parental chAb18 from which the variants were derived was also tested as a comparator.

[5] = molecular target: T5, Human B7-H3-ECD (His tag); assay: SPR Biacore, naked mAb
Description: Biacore T200 SPR instruments were used to measure the binding kinetics of human B7-H3 (analyte) binding to various mAbs (ligands). The assay format was Fc-based capture via immobilized anti-mouse (Fc) (Pierce 31170) or immobilized anti-human (Fc) (Pierce 31125). A standard amine coupling protocol was employed to immobilize the capture reagents via primary amines to the carboxy-methyl (CM) dextran surface of CM5 sensorchips (Biacore); capture antibodies were coupled to a level of approximately 5000RU. For binding kinetic measurements the assay buffer was HBS-EP+ (Biacore): 10 mM Hepes, pH7.4, 150 mM NaCl, 3 mM EDTA, 0.05% polysorbate 20. During the assay, all measurements were referenced against the capture surface alone. Each assay cycle consisted of the following steps: 1) Capture of ligand to approximately 50RU; 2) Analyte injection over both reference and test surface, 240 μL at 80 μL/min, after which the dissociation was monitored for 900 seconds at 80 μL/min; 3) Regeneration of capture surface with low pH glycine. […] Data were processed and fit to a 1:1 binding model using Biacore T200 Evaluation Software to determine the binding kinetic rate constants, kₐ (on-rate) and kd (off-rate), and the equilibrium dissociation constant (affinity, KD).
as §2

Binder | EC50 (Human full length B7-H3 [4]) [nM] | Kd [5] [nM] | also measured
B1 | – | – | EC50 [1]: 2.6 nM; EC50 (Human full length B7-H3 [2]): 2.75 nM; EC50 (Mouse B7-H3 on cells): 2.39 nM; Kd (Cyno B7-H3-ECD (his tag)): ≤ 0.019 nM; koff (Cyno B7-H3-ECD (his tag)): ≤ 1e-05 s⁻¹; kon (Cyno B7-H3-ECD (his tag)): 510000 M⁻¹ s⁻¹; Kd [3]: 0.034 nM; koff [3]: 1.9e-05 s⁻¹; kon [3]: 540000 M⁻¹ s⁻¹
B2 | 1.19 | – | –
B3 | – | 0.25 | –
B4 | 2.09 | – | –
B5 | – | 0.2 | –
B6 | – | 0.69 | –
B7 | 1.98 | – | –
B8 | 1.92 | – | –
B9 | – | 0.57 | –
B10 | – | 0.4 | –
B11 | 1.58 | – | –
B12 | 2.91 | – | –
B13 | – | 0.25 | –
B14 | – | 0.23 | –
B15 | 1.27 | – | –
B16 | 1.27 | – | –
B17 | 0.9 | – | –
B18 | 2.25 | – | –
B19 | – | 0.23 | –
B20 | – | 0.52 | –

— US20170355769A1 (AbbVie / Abbott, published 2017)
